From patent US20220213145A1 (Bicycle, published 2022)
Starred links: 1 amine or outer side, 2 acyl side, 3 side chain; linkers in the order of their positions; H or OH if unused. Positions of bridges follow the written chain, without caps; N, C: chain ends. Non-standard residues stand in square brackets, D forms with d. Primed or numbered codes have the meaning given here. No end group written: not given here. TATA′ = 1,3,5-triacryloylhexahydro-1,3,5-triazine scaffold bound to the three cysteines; TATA = O=C(CC[*:1])N1CN(C(=O)CC[*:2])CN(C(=O)CC[*:3])C1; Phe(4-Me) = Cc1ccc(C[C@H](N)C(=O)O)cc1; Ser(ΨH,HPro) = O=C(O)[C@@H]1COCN1; Nle = CCCC[C@H](N)C(=O)O; PEG3′ = not defined here; Ac5c = NC1(C(=O)O)CCCC1

What was measured:
[1] = target: CD137 on Jurkat reporter cells (Promega CD137 luciferase reporter assay) (UniProt Q07011 24-255, limits assumed); assay: cell-based or functional assay
CD137 on Jurkat reporter cells (Promega CD137 luciferase reporter assay), sequence (Q07011 24-255 limits assumed): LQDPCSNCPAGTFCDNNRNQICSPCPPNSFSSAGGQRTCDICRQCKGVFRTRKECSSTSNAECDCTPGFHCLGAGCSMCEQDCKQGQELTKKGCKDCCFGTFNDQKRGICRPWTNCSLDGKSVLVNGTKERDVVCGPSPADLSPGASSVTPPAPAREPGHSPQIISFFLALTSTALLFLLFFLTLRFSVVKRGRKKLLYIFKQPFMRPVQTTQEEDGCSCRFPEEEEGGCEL

[2] = target: T1, human CD137 protein (direct binding assay) (human, UniProt Q07011 24-186, limits assumed); assay: FP direct binding
T1 construct: Soluble CD137 protein titrated from 3 uM in the fluorescence polarisation assay; also called hCD137; TNFRSF9
Experimental: Affinity of the peptides of the invention for human CD137 (Ki) was determined using a fluorescence polarisation assay, in accordance with the methods disclosed in WO 2016/067035. […] CD137 protein was titrated starting at 3 μM in the same assay buffer as the peptide to assay 1 nM peptide in a total volume of 25 μL in black walled and bottomed low bind low volume 384 well plates. […] The concentrations of CD137 protein were 1 in 2 serial dilutions to give 12 different concentrations starting at 3 μM. Measurements were conducted on a BMG PHERAstar FS equipped with an FP 485 520 520 optic module at 25° C. with 200 flashes per well and a positioning delay of 0.1 second. Alternatively, the measurements were performed using Envision (PerkinElmer) equipped with FITC FP Dual Enh mirror, set to 30 flashes. Each well was measured every 5 minutes for 60 minutes. The gain used for analysis was determined for each tracer at the end of the 60 minutes where there was no protein in the well. The mP were fit to a standard 1:1 binding model with a quadratic equation to generate a Kd value.

[3] = target: T2, Recombinant human CD137 homotrimer (R&D systems), biotinylated (human, UniProt Q07011 24-186, limits assumed, biotinylated with EZ-Link Sulfo-NHS-LC-LC-Biotin); assay: SPR (Biacore T200), biotinylated CD137 on streptavidin
T2 construct: also called biotinylated CD137
Experimental: (§1) Biacore experiments were performed to determine kₐ (M⁻¹s⁻¹), kd (s⁻¹), KD (nM) values of peptides binding to human CD137 protein. […] The protein was desalted to remove uncoupled biotin using spin columns into PBS.
(§2) For analysis of binding, a Biacore T200 instrument was used utilising a XanTec CMD500D chip. Streptavidin was immobilized on the chip using standard amine-coupling chemistry at 25° C. with HBS-N (10 mM HEPES, 0.15 M NaCl, pH 7.4) as the running buffer. Briefly, the carboxymethyl dextran surface was activated with a 7 min injection of a 1:1 ratio of 0.4 M 1-ethyl-3-(3-dimethylaminopropyl) carbodiimide hydrochloride (EDC)/0.1 M N-hydroxy succinimide (NHS) at a flow rate of 10 μl/min. For capture of streptavidin, the protein was diluted to 0.2 mg/ml in 10 mM sodium acetate (pH 4.5) and captured by injecting 120 μl of onto the activated chip surface. Residual activated groups were blocked with a 7 min injection of 1 M ethanolamine (pH 8.5) and biotinylated CD137 captured to a level of 800-1800 RU. Buffer was changed to PBS/0.05% Tween 20 and a dilution series of the peptides was prepared in this buffer with a final DMSO concentration of 0.5%. The top peptide concentration was 500 nM or 10 μM with 6 further 3-fold (500 nm), or 2-fold (10 μM) dilutions in PBS/0.05% Tween 20. The SPR analysis was run at 25° C. at a flow rate of 90 μl/min with 60 seconds association and 100-600 seconds dissociation. After each cycle, a regeneration step (10 μl of 10 mM glycine pH 2) was employed. Data were corrected for DMSO excluded volume effects. All data were double-referenced for blank injections and reference surface using standard processing procedures and data processing and kinetic fitting were performed using Scrubber software, version 2.0c (BioLogic Software). Data were fitted using mass transport model allowing for mass transport effects where appropriate.

[4] = target: T2, Recombinant human CD137 homotrimer (R&D …); assay: SPR (Biacore T200), biotinylated CD137 on streptavidin (n = 2)
Experimental: as §1
as §2, with “The SPR analysis was run at 25° C. at a flow rate of 90 μl/min with 60 seconds association and 100-600 seconds dissociation. After each cycle, a regeneration step (10 μl of 10 mM glycine pH 2) was employed. Data were corrected for DMSO excluded volume effects. All data were double-referenced for blank injections and reference surface using standard processing procedures and data processing and kinetic fitting were performed using Scrubber software, version 2.0c (BioLogic Software). Data were fitted using mass transport model allowing for mass transport effects where appropriate.” left out

Binder | Kd [3] | also measured
ACIEEGQYCFADPYMCA (linker 2-9-16 via TATA) [BCY592] | – | IC50 (% inhibition of CD137L-induced NF-kB luciferase activity in CD137 Jurkat reporter cells) [1]: 3960 nM
ACIEEGQYCFADPYXCA ([PEG3]ACIEEGQYCFADPY[tBuAla]CA; fluorescein-labelled; cyclised on TATA, also called [PEG3]-(74-01-04) tBuAla12) [BCY7210] | – | Kd [2]: 70 nM
[PEG3′]ACIEE[dF]QYCFADPY[Nle]CA (linker 3-10-17 via TATA; also: fluorescein-labelled, also called [PEG3]-(74-01-04) D-Phe4 Nle12) [BCY7166] | – | Kd [2]: 10 nM
[PEG3′]ACIEEGQYCFAAPY[Nle]CA (linker 3-10-17 via TATA; also: fluorescein-labelled, also called [PEG3]-(74-01-04) Ala9 Nle12) [BCY7290] | – | Kd [2]: > 3000 nM
Ac-ACI[Ser(ΨH,HPro)]EGQYCFADPY[Nle]CA (linker 2-9-16 via TATA′, also called Ac-(74-01-04) Oxa2 Nle12) [BCY7958] | 20 nM | –
Ac-ACIPE[dA]PYCFADPY[Nle]CA (linker 2-9-16 via TATA′, also called Ac-(74-01-04) Pro2 DAla4 Pro5 Nle12) [BCY7961] | 10 nM | –
Ac-ACIEE[Ac5c]QYCFADPY[Nle]CA (linker 2-9-16 via TATA, also called Ac-(74-01-04) Ac5c4 Nle12) [BCY8665] | – | Kd [4]: 200 nM

The next lines start with results.

Kd [3] | Binder | also measured
500 nM | ACIEEGQYCFADPYXCA (ACIEEGQYCF[dA]DPY[Nle]CA; cyclised on TATA, also called A-(74-01-04)-A D-Ala8 Nle12) [BCY8217] | –
1000 nM | Ac-ACIEEGQ[Phe(4-Me)]CFADPY[Nle]CA (linker 2-9-16 via TATA, also called Ac-(74-01-04) 4MePhe6 Nle12) [BCY8670] | –
1000 nM | ACIEEGQYCFXDPYXCA ([Ac]ACIEEGQYCF[Abu]DPY[Nle]CA; cyclised on TATA, also called Ac-(74-01-04) Abu8 Nle12) [BCY8676] | –
200 nM | Ac-AC[Ac5c]EEGQYCFADPY[Nle]CA (linker 2-9-16 via TATA, also called Ac-(74-01-04) Ac5c1 Nle12) [BCY8658] | –
